In patent CN113999301A (JIANGSU XINTRUM PHARMACEUTICALS CO LTD, dated 2022):

Target: 新冠假病毒Delta突变株的S蛋白 (B.1.617.2(Delta)) (SARS-CoV-2, UniProt P0DTC2 14-1273)
Test: cell-based or functional assay

B1: 抗SARS-CoV-2(COVID-19)S蛋白RBD单克隆抗体B15-5-B3 (antibody, V domains shown)
VH: EVKFEESGGGLVQPGGSMKLSCAASGFTFSDAWMDWVRQSPEKGLEWVAEIRNKANNHATYYAESVKGRFTISRDDSKSSVYLQMNSLRAEDTGIYYCTPYDYAYPWFWGQGTLVTVSA
VL: EIVLTQSPTTMAASPGEKITITCSASSSISSHYLHWYQQKPGFSPKLLIYRSYSLASGFPGRFSGSGSGTSFSLSIGTMEAEDVATYYCQQGSSRITPFGGGTKLEIK
假病毒中和效应 EC50 (luciferase, HEK293-ACE2 cells): 0.27 µg/mL
